A protein production outcome set (Wang et al. 2014)

Test: label from the status in PepcDB records
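Note: failed if final PepcDB status was selected cloned or expressed and not failed if soluble or beyond.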

With “MSASGLLVEKSGPLSLIQDFGRFGLAHIGITQGGPVDDYAYSWANHLLGNRVNCSAIEITLGNACFIALQDCHLAICGGDLNASVDGHPIANWSDFSIKKGQKLQFGMAKNGLRAYLAVKGGFNVPEHLGSSSTVLREALGGLEANGNALKAGDVLPFDAHSLPNHKPRIMTFRFKPDYNLPITLRVIEGYQCDDFSVEAKEKFYSGSFAISPDSNRMGYRLEGNTVKPPYDGILSEGIALGAIQIPHDGNPIVLLNDHQTIGGYPKLGCVARIDLPRLAQAKPGQKVRFVKGDRQGLQDVWCQWAQFFGY” the protein production was “failed”.
With “MSASIRDAGVADLPGILAIYNDAVGNTTAIWNETPVDLANRQAWFDTRARQGYPILVASDAAGEVLGYASYGDWRPFEGFRGTVEHSVYVRDDQRGKGLGVQLLQALIERARAQGLHVMVAAIESGNAASIGLHRRLGFEISGQMPQVGQKFGRWLDLTFMQLNLDPTRSAP” the protein production was “not failed”.
For “MSASRILTAFGLTGALVTAGVAQAGIVYIPEGSADSVLMVESETGQPVGRISGVEAVHGLAGAPGTPYLVAGSYSEIDPESAAQTARPEGVSQADHNAHHAKPAKAAMPTDKGLSLVSVIDAGTGEVVRRIEVPGAVHHTAVSPDGRWAMATHPGGDGVSLIDLSTLEYAGFIATGPMPNYVSFSPDNSRAYVSNAGNGTLSELDLDRRILSRNLLAGEGPEHFALSRDGATVFVADAEAGRVLRLDIASGAETASYGFGAELHGLDLSEREDTLFVAVKGADQVAAVDLASGAVRLQELAPAPYHLTVADGGETLFVSSREASMVWAVDQVSLRVTAEIGIEGEGHQMVVLP”, the protein production was “failed”.
In the case of “MSASTGASVIDLYHQAQDYFFVSISQFYRRFGSGLSAYCTGVEASSLNLLMMNVCAVDEPGALAEGVAFLQRTGMPFCVVVPEALVPRVSGQLHQQHLLAADKTTCMVLDLTRHEPRQALAAQAQVRCSDLRLEDWAQPVQSAFESGEGGIEQYLARHRAALSAGRALSHFTLYVEERPVSALTLSLLPGLARLDDIGTVQDCQGQGYATALIQAVLAFARARGARTCVLEASLDGLSIYRKAGFEALFDYRTFCQE”, the protein production is reported as “failed”.
For “MSATGLEVFDRTLHKTHAWLKAIMEELGTEDRHKAYLALRAVLHALRDRLTVEEVAQLAAQLPMLVRGLYYEGWDPTGKPLKERHKEAFLAHVAEELKTPSGPAVDPEAATRAVFKVLSREISQGELEDVLGLLPKELRALWPQG”, the protein production was “not failed”.
For “MSATYQLALQQLTDSALPTGAFAHSLGFESYIHRGLVRDESTFSTWLQAFVSQQLSYSDGLALRFLFEGVDVGLLDGVLSAQLLAREVREASLKMGGRLLEIGGEVFPSAELEAYRGLVRAGSASGHQPLAFGVIARSLGVPLEEALSAYLFATVTSLTQNAVRAIPLGQNAGQRVLRQAHDAVAAAIHVVAQLCWDDFGAVSPGLEISQMRHERQRARMFMS”, the protein production was “failed”.
With “MSAYPPGAAPSDPVDPVTLEAGQTAKVTRPTGRFMLGHPARLIALGFGSGLSPVSPGTVGTLLGWLSFIVISKWIDPTTWLWIIAGGFVIGIWACLRTARDMGVYDHGSMVWDEIVAFWLVLLFVMPTGFWGQFAAFVWFRFFDIVKPAPIRYYDRTLKGPGFTGAFGVMFDDIFAAFYTLLVFALWRSI” the protein production was “failed”.
In the case of “MSCRHGTTRCRSLCDYGGLSMQYVNTCPVLNVEECDRLSFMPYLFGTDFMLAELQVYALAKKWMPGYEGGFWHFIRLPEGGGYMMPDCGRVHLVSSENWFDRTVSADAAGIILTSLAINRRLAAHHDSSNPALTRLYMLRDAQLWNHITFHPECSAIYAALD”, the protein production is reported as “failed”.
For “MSCTNRVPGILMCEIFIRANQRSYSVQARSLRLHGVATSVRLEQLFWDVLEEIAARDGMRVTQLIERLYDELVQYRGEAANFTSFLRVCCLRYQVLQAEGRIPADATVPIRSLDAQAVLRGLPANLYDSRPLG”, the protein production was “failed”.
In the case of “MSCYNKALLIGNKVVVILVFLLCLVHSSESLRPLFACDPANGLTRTLRFCRANVPIHVRVQDLLGRLTLQEKIRNLVNNAAAVPRLGIGGYEWWSEALHGISDVGPGAKFGGAFPGATSFPQVITTAASFNQSLWEEIGRVVSDEARAMYNGGVAGLTYWSPNVNILRDPRWGRGQETPGEDPIVAAKYAASYVRGLQGTAAGNRLKVAACCKHYTAYDLDNWNGVDRFHFNAKVTQQDLEDTYNVPFKSCVYEGKVASVMCSYNQVNGKPTCADENLLKNTIRGQWRLNGYIVSDCDSVDVFFNQQHYTSTPEEAAARSIKAGLDLDCGPFLAIFTEGAVKKGLLTENDINLALANTLTVQMRLGMFDGNLGPYANLGPRDVCTPAHKHLALEAAHQGIVLLKNSARSLPLSPRRHRTVAVIGPNSDVTETMIGNYAGKACAYTSPLQGISRYARTLHQAGCAGVACKGNQGFGAAEAAAREADATVLVMGLDQSIEAETRDRTGLLLPGYQQDLVTRVAQASRGPVILVLMSGGPIDVTFAKNDPRVAAIIWAGYPGQAGGAAIANIIFGAANPGGKLPMTWYPQDYVAKVPMTVMAMRASGNYPGRTYRFYKGPVVFPFGFGLSYTTFTHSLAKSPLAQLSVSLSNLNSANTILNSSSHSIKVSHTNCNSFPKMPLHVEVSNTGEFDGTHTVFVFAEPPINGIKGLGVNKQLIAFEKVHVMAGAKQTVQVDVDACKHLGVVDEYGKRRIPMGEHKLHIGDLKHTILVQPQL”, the protein production is reported as “failed”.
For “MSDAAISCSWKPFFRELATRLLDYEDRQPELLAALRDASISINHDEGEPLREVDPFTFFSLVLKHTSDATALPLFARVGAALGVQAPSPTDLIGVPWSNPMNAWFFAYRSQRQPGDVPLLWRLARQAVAGILDAQTFEDALKIRKVALPKLTQGLFWLNPERFLALNAVNVPYLQARGLQAAGQVQTLAEYETVLEAAHKLNPDFAALSHRAWLNSQTAALEGNHFPFARYQADAQEFAGDKVKGNLVLDRRYAPLLLDLMAGEWETLKPSRSPYSGREQLAVKVALGGGVKTDGGAFARALLFADDSGFEYVPFSAGLTLEAGLPDGRGDGPRQALQEPARQHTLLTALNAPLPAGLEATLTLNTDFGALFLLPLGPGREAEAAQQLQQYMSGVGRSRRLRVGLSLLPEHLESDKFPELLDAALTYLDALVDLLDGLMRPSEETSTEEIGVPGTRPVAPTPAAFVPVPGVPLNQILYGPPGTGKTYRVVDEALSVLDPAFLSAHPGSEGRAARKARYDELAAQGQISFVTFHQSFGYEDFIEGIKPVMSGGALSYVLQDGVFLEAVRSAGGALAPAAPEAGPSTETQPLVRPDAQVWRMYIDGTAPVSRIRDLSLGRGELRMGSYGKPPRDLTQAGVEDLSGRQLLFKESVRVGDLMLLATAADRIGAVGVVTGDYRFDPHSDPTFATDYAHTRSVKWLAQDLNVGATETLGKSFAPPTLQRVADVTPAQVLQALGVSTAGGETAHAPTPRPHVLIIDEINRGNISKIFGELITLLESGKRTGAPEALTVTLPLSRRPLSVPQSLYVIGTMNTADRSLTLLDAALRRRFVFRPVWPQPEVLPVLDLGGTALDLRKFLHVINDRIERLLSREQVIGHAYLLGLPATLGGVSSALRERILPLLEEYFFEDWSKIREVLGDESKAEALQFIHRSGSGPELRYRLNPEAFENIEAFTGVYAGVSDQDFPFDA”, the protein production was “failed”.
With “MSDAMPLDQTLEQLTQDEWIDIPQGWSQGRTIYGGLVAGLLMHKALSVMNDESKNLLSTSITFVGPVNEGRVRLTVEILRQGKSVTTIEARLWQDQAVQTILIASFGQPRSSEIFVLNLPEAPDYLSPEQFSRMPFVKMMPECYQQFDLRWAEGHYPMTQQAPDFGGWCRYDIQKHSPRALNVADLLILMDIWPPGVLPMFQTIAPASSLTWHLTFVRPVAYELHDWFKYQVVTQHAAFGYATEYAHLWDAQNRLIAISRQTVTVFA” the protein production was “failed”.
For “MSDAPVCERNPFLGMWSMVTRKTASGASLGAGQAITPLEAMRCYTANPARAEGQAARKGTLSPGKLADLIVLDRDPCAVDPDEIRHTQVLATLVGGQATYRAAGAPLEHHHHHH”, the protein production was “failed”.
For “MSDAQLGPLRLTLLSVSARTGFCKKQQELWQRRKEAAEALGTRKVSVLLATSHSGARPAVSTMDSSAAPTNASNCTDALAYSSCSPAPSPGSWVNLSHLDGNLSDPCGPNRTDLGGRDSLCPPTGSPSMITAITIMALYSIVCVVGLFGNFLVMYVIVRYTKMKTATNIYIFNLALADALATSTLPFQSVNYLMGTWPFGTILCKIVISIDYYNMFTSIFTLCTMSVDRYIAVCHPVKALDFRTPRNAKIINVCNWILSSAIGLPVMFMATTKYRQGSIDCTLTFSHPTWYWENLLKICVFIFAFIMPVLIITVCYGLMILRLKSVRMLSGSKEKDRNLRRITRMVLVVVAVFIVCWTPIHIYVIIKALVTIPETTFQTVSWHFCIALGYTNSCLNPVLYAFLDENFKRCFREFCIPTSSNIEQQNSTRIRQNTRDHPSTANTVDRTNHQVRSL”, the protein production was “failed”.
With “MSDDEIGDGARAFNQLIQALSLSIETETAVRTFTEMLVSELDVHQLTEQALALLLQHTGADGGAILIEVDGEIRVAASQGIGSAHTLANNDRVRSALRTERRHRVQLPEDLVVDGMLAQFRPKEVIIDPVRHKEVVLGAVVLASGQGFSAEDRNRLDVFERGLALALHNALLYDRLQTLAALDPLEHHHHHH” the protein production was “failed”.
With “MSDGPLLNDVTRAFAEAHRNEDVRDLALKTKRTADLDLPAALDQIAGWQIARNKLPQWAACADIVYPAHISMEQCSSQFTAQYKAEIARRLLRSLPQSAGQTANDATMTDLTGGFGVDFSYLARGFGHATYVERQSHLCELAAHNMAALGLTQAQVVCGDGVEYLRAMEPAQLIYIDPARRDEHGARTYAIEDCTPDVLALRDLLLAKARYVMIKLSPMLDWRKAVDDFAGTVAEVHIVSTGNECKELLLVLDGKAAGATSDAAAADTRAPHVYCVNDDQRLDYDAAAYTRGLRIGDAPLPHELRYLYEPNASIMKAGCFDVVEARFGAVQIGPSSHLFVSDEPVDGFPGRGFAIETIGGMGKKELKRLLSGLDRANIAVRNFPLTAPQLRKKLKLADGGDAYLFGTTMQGGDHVLIRTAKISR” the protein production was “failed”.
In the case of “MSDHEAGHKFLARLGKKRLRPGGRKATEWLLSQAAFRQDSVVLEVACNMGTTAMEIARRFGCKVIGADMDKAALQKAQENVAANGLASQVTIMQANALELPFPDNHFDVVINEAMLTMYADKAKSRIIAEYYRVLKPGGRLITHDIMLLSEKDTGALQAVEQMHKAINVHAQPMLRERWVTLFQECGFSKVNYDNGAMTLLTPQGLIYDEGVAGAARIVKNALKKENRSMFFNMFHTFRRNRNQLNYIAVCSTK”, the protein production is reported as “failed”.
For “MSDHPGSNAANPPPVPGAPALRTRRFNVSLVWLVPIVAALVGLSMVVHNSLSAGPEISISFQTAEGLEANKTQVKYKNVVIGKVTSIALSDDRKKVVAKVELDQSAEPFTADDSLFWVVRPRIGANGISGVDTLLSGAFIGADAGKSEKRKDSFKGLETPPPITYGQKGKRFTLHTDDLGSLDIGSPVYYRRIEVGQVVSYQLANSGKGVDVKIFVNSPNDKYVTTDTRFWNASGVDVTLGANGLKVNTESVSSILAGGIAFVEPKYSPNAKPADENAEYTLFGDQDTALAPPDGAPYYIRMRFDQALRGLSVNAPVEFLGVNIGKVVSMDLDYDEQRKYFPTLVGAVIYPERLGKAHEKLVKQTGGEDDVRSAKLIGAFVKNGLRAQPRSGNLLTGQLYISLDFVTNAKPVAYDATARPLEIPTVPGSMDKLQEQLQAVVDKISKLPIDSIAANLNGSLAEMQKTLKQVNGEVLPQMRDTLEQSKKTLASANESFSEDSPQRQKLGQAMEEVQRTARSVRVLSDFLGRHPEALIRGRLKDNQPDAYQSPSSSVRESVPEAQP”, the protein production was “failed”.
In the case of “MSDICVIIAAYNAEATIAQAVTSALAEAEVAEVVVVDDASSDATAEAALAASDGSGRLIVERQAQNGGPSAARNRAVALSQAPRIAILDADDFFLPGRFARLDPDLDLAADNIVFVTPEHAARLDPTNLPAAPREVEMLDAERFALGNLAQGVHRGELGFLKPVMSRAFLTRHGLRYDERMWLGEDFDLYMRMLLLGARFGLTRAVGYAAVQRGASLSGRHRTADLAALEACCRAHLEMPASPATQEAMRRHLRQVQAKLLLRQFLDRKAEAGLGAALGFALAPPARFLPIAKGVARDKIAALRPPAPPRAERFLLPVLEHHHHHH”, the protein production is reported as “failed”.
